# Results published in patent US20190359693A1.
# Where a chain is given by its changes, count along the chain named.
# B1: SD1076 (VHH)
# VHH: EVQLVESGGGLVQAGGSLTLSCAGSGFAFSIATMGWYRQAPGKQRELVADITSGGSTNYADSVKGRFTISRDNAKNTVYLQMNSLKPEDTAVYYCNADSLATGWRQYSYWGKGTQVTVSS
# B2: SD1070 (VHH)
# VHH: EVQLVESGGGLVQAGGSLRISCAASGRTFSIYSMGWFRQAPGKEREFVATIGWNSGRTFYADSMKERFTISADNARNTLYLQMNSLKFEDTAVYYCAAAKGPLRLSSQADYWGQGTQVTVSS
# B3: MD1224 (VHH)
# chain: EVQLVESGGGLVQPGGSLKLSCAASGFTFSTSWMYWLRQAPGKGLEWVSVINTDGGTYYADSVKDRFTISRDNAKDTLYLQMSSLKSEDTAVYYCAKDWGGPEPTRGQGTQVTVSSAAAGGGGSGGGGSGGGGSGGGGSGGGGSGGGGSGGGGSEVQLVESGGGLVQPGGSLKLSCAASGFTFSTSWMYWLRQAPGKGLEWVSVINTDGGTYYADSVKDRFTISRDNAKDTLYLQMSSLKSEDTAVYYCAKDWGGPEPTRGQGTQVTVSS
# B4: MD1222 (bispecific antibody)
# chain: EVQLVESGGGLVQPGGSLRLSCAATGFTLENKAIGWFRQTPGSEREGVLCISKSGSWTYYTDSMRGRFTISRDNAENTVYLQMDSLKPEDTAVYYCATTTAGGGLCWDGTTFSRLASSWGQGTQVTVSSAAAGGGGSGGGGSGGGGSGGGGSGGGGSGGGGSGGGGSEVQLVESGGGLVQPGGSLKLSCAASGFTFSTSWMYWLRQAPGKGLEWVSVINTDGGTYYADSVKDRFTISRDNAKDTLYLQMSSLKSEDTAVYYCAKDWGGPEPTRGQGTQVTVSS
# B5: MD2404 (bispecific antibody)
# chain: EVQLVESGGGLVQPGGSLRLSCAVSISIFDIYAMDWYRQAPGKQRDLVATSFRDGSTNYADSVKGRFTISRDNAKNTLYLQMNSLKPEDTAVYLCHVSLYRDPLGVAGGMGVYWGKGALVTVSSAAAGGGGSGGGGSGGGGSGGGGSGGGGSGGGGSGGGGSEVQLVESGGGLVQAGGSLKLSCAASGRTYAMGWFRQAPGKEREFVAHINALGTRTYYSDSVKGRFTISRDNAKNTEYLEMNNLKPEDTAVYYCTAQGQWRAAPVAVAAEYEFWGQGTQVTVSSLINLEGGGGSGGGGSGGGGSGGGGSGGGGSGGGGSGGGGSPAGEVQLVESGGGLVQPGGSLKLSCAASGFTFSTSWMYWLRQAPGKGLEWVSVINTDGGTYYADSVKDRFTISRDNAKDTLYLQMSSLKSEDTAVYYCAKDWGGPEPTRGQGTQVTVSSAAAGGGGSGGGGSGGGGSGGGGSGGGGSGGGGSGGGGSEVQLVESGGGLVQPGGSLKLSCAASGFTFSTSWMYWLRQAPGKGLEWVSVINTDGGTYYADSVKDRFTISRDNAKDTLYLQMSSLKSEDTAVYYCAKDWGGPEPTRGQGTQVTVSS
# B6: MD2402 (protein)
# chain: EVQLVESGGGLVQPGGSLRLSCAVSISIFDIYAMDWYRQAPGKQRDLVATSFRDGSTNYADSVKGRFTISRDNAKNTLYLQMNSLKPEDTAVYLCHVSLYRDPLGVAGGMGVYWGKGALVTVSSAAAGGGGSGGGGSGGGGSGGGGSGGGGSGGGGSGGGGSEVQLVESGGGLVQAGGSLKLSCAASGRTYAMGWFRQAPGKEREFVAHINALGTRTYYSDSVKGRFTISRDNAKNTEYLEMNNLKPEDTAVYYCTAQGQWRAAPVAVAAEYEFWGQGTQVTVSSLINLEGGGGSGGGGSGGGGSGGGGSGGGGSGGGGSGGGGSPAGEVQLVESGGGLVQPGGSLRLSCAATGFTLENKAIGWFRQTPGSEREGVLCISKSGSWTYYTDSMRGRFTISRDNAENTVYLQMDSLKPEDTAVYYCATTTAGGGLCWDGTTFSRLASSWGQGTQVTVSSAAAGGGGSGGGGSGGGGSGGGGSGGGGSGGGGSGGGGSEVQLVESGGGLVQPGGSLKLSCAASGFTFSTSWMYWLRQAPGKGLEWVSVINTDGGTYYADSVKDRFTISRDNAKDTLYLQMSSLKSEDTAVYYCAKDWGGPEPTRGQGTQVTVSS
# B7: SD3022 (VHH)
# VHH: EVQLVESGGGVVQPGGSLRLSCAASISIFDIYAMDWYRQAPGKQRELVAVSFRDGSTYYADSVKGRFTISRDNSKNTLYLQMNSLRPEDTAVYLCHVSLYRDPLGVAGGIGVYWGKGALVTVSS
# B8: SD3021 (VHH)
# VHH: B7 VHH with I110L
# B9: SD3029 (VHH)
# VHH: B7 VHH with V11L, A24V, E46D, V50T, Y58N, S74A, R86K, I110L
# B10: SD3030 (VHH)
# VHH: B7 VHH with V11L, A24V, E46D, V50T, Y58N, S74A, R86K
# B11: SD3013 (VHH)
# VHH: B7 VHH with V50T, P87A, I110M
# B12: SD3119 (VHH)
# VHH: B7 VHH with E1Q, P87A, L94Y, K116Q, A118T
# B13: SD3079 (VHH)
# VHH: B7 VHH with P87A, L94Y, I110L, K116Q, A118T
# B14: SD1049 (VHH)
# VHH: EVQLVESGGGLVQAGGSLRLSCAASGRTLSLYSVGWFRQAPGKEREFVATIGWNSGRTFYVDSMKGRFTISRDNAKNTVYLQMNDLKVEDTAVYYCAAAKGPLRLSNQADYWGQGTQVTVSS
# B15: SD1017 (VHH)
# VHH: EVQLVESGGGLVQAGGSLRLSCAASGRTYAMAWFRQAPGKEREFVAHINALGTRAYYSDSVEGRFTISRDNAKNTGYLQMNSLEPEDTAVYVCAAGGQWRAAPVADAAQYDFWGQGTQVTVSS
# B16: SD2020 (VHH)
# VHH: EVQLVESGGGLVQPGGSLRLSCAAAGGAFNRQLVAWFRQAPGKKREFVATVTTSGGSSYYADSVKGRFTISRDTAKNTVALQMNSLKAEDAAVYYCAARDSFTVAPYYPPESYAYWGQGTQVTVSS
# Target: HA of H1N1 A/Puerto Rico/8/34-MA (influenza A virus)
# Assay: cell-based or functional assay
row,Binder,VNA titer [nM]
1,B1,8.7
2,B2,> 1000

# Target: hemagglutinin (HA) of influenza virus B/Brisbane/60/08 (Victoria) (influenza B virus)
# Assay: cell-based or functional assay
row,Binder,neutralization titer [nM]
1,B3,4.1
2,B4,3

# Target: hemagglutinin (HA) of influenza virus B/Malaysia/2506/04 (Victoria) (influenza B virus)
# Assay: cell-based or functional assay
row,Binder,neutralization titer [nM]
1,B3,2.7
2,B4,3.6

# Target: hemagglutinin (HA) of influenza virus H5N1 A/Vietnam/1194/04 (influenza A virus)
# Assay: cell-based or functional assay
row,Binder,average neutralization titer [nM]
1,B5,20.4
2,B6,23.8

# Target: hemagglutinin (HA) of influenza virus H7N3 A/NIBRG/60 (A/mallard/Netherlands/12/00) (influenza A virus)
# Assay: cell-based or functional assay
row,Binder,average neutralization titer [nM]
1,B5,34.3
2,B6,33.6

# Target: hemagglutinin (HA) of influenza A/California/07/09 (H1N1) (influenza A virus A/California/07/09 (H1N1))
# Assay: cell-based or functional assay
row,Binder,VNA IC50 [nM]
1,B7,3
2,B8,3
3,B9,3
4,B10,3

# Target: hemagglutinin (HA) of influenza A/Brisbane/10/07 (H3N2) (influenza A virus A/Brisbane/10/07 (H3N2))
# Assay: cell-based or functional assay
row,Binder,VNA IC50 [nM]
1,B11,318
2,B12,253
3,B7,632
4,B8,> 1000
5,B13,949
6,B9,632
7,B10,274

# Target: HA of B/Florida/04/2006 (Yamagata) (influenza B virus)
# Assay: cell-based or functional assay
row,Binder,VNA titer [nM]
1,B2,> 1000

# Target: hemagglutinin (HA) of influenza virus H1N1 A/Puerto Rico/8/34-MA (influenza A virus)
# Assay: cell-based or functional assay
row,Binder,average neutralization titer [nM]
1,B5,12.2
2,B6,12.8

# Target: hemagglutinin (HA) of influenza virus B/Lee/40 (Old) (influenza B virus) (UniProt P03460)
# Assay: cell-based or functional assay
Binder,average neutralization titer [nM],neutralization titer [nM]
B5,30.3,
B3,,33
B6,35.4,
B4,,12.7

# Target: hemagglutinin (HA) of influenza virus H3N2 A/HK/1/68-MA (influenza A virus)
# Assay: cell-based or functional assay
row,Binder,average neutralization titer [nM]
1,B5,57.7
2,B6,28.3

# Target: HA of H3N2 A/Brisbane/10/2007 (influenza A virus)
# Assay: cell-based or functional assay
row,Binder,VNA titer [nM]
1,B1,> 1000
2,B14,19.1
3,B15,> 1000
4,B2,15.3
5,B16,9.3

# Target: HA of H5N1 A/PR8 H5N1 HK97 (influenza A virus)
# Assay: cell-based or functional assay
row,Binder,VNA titer [nM]
1,B1,66.8

# Target: hemagglutinin (HA) of influenza virus B/Florida/04/06 (Yamagata) (influenza B virus)
# Assay: cell-based or functional assay
Binder,average neutralization titer [nM],neutralization titer [nM]
B5,2.1,
B3,,0.8
B6,14.1,
B4,,2.1

# Target: HA of H5N1 A/Vietnam/1194/04 (influenza A virus)
# Assay: cell-based or functional assay
row,Binder,VNA titer [nM]
1,B1,84.7
2,B14,> 1000
3,B15,> 1000
4,B2,> 1000
5,B16,> 1000

# Target: HA of H1N1 A/Brisbane/59/07 (influenza A virus)
# Assay: cell-based or functional assay
row,Binder,VNA titer [nM]
1,B14,> 1000
2,B15,> 1000

# Target: HA of H1N1 A/New Caledonia/20/1999 (influenza A virus)
# Assay: cell-based or functional assay
row,Binder,VNA titer [nM]
1,B1,22.1
2,B14,> 1000
3,B15,> 1000
4,B2,> 1000

# Target: hemagglutinin (HA) of influenza A/Hong Kong/1/68 (H3N2) (influenza A virus A/Hong Kong/1/68 (H3N2)) (UniProt Q91MA7)
# Assay: cell-based or functional assay
row,Binder,VNA IC50 [nM]
1,B11,126
2,B12,101
3,B13,503
4,B9,251
5,B10,126

# Target: HA of H7N3 A/NIBRG/60 (A/mallard/NL/12/00) (influenza A virus)
# Assay: cell-based or functional assay
row,Binder,VNA titer [nM]
1,B1,> 1000
2,B14,115
3,B15,34.7
4,B2,366
5,B16,> 1000

# Target: hemagglutinin (HA) of influenza A/Vietnam/1194/04 (H5N1) (influenza A virus A/Vietnam/1194/04 (H5N1))
# Assay: cell-based or functional assay
row,Binder,VNA IC50 [nM]
1,B11,20
2,B12,6
3,B7,20
4,B8,15
5,B13,16
6,B9,20
7,B10,20

# Target: hemagglutinin (HA) of influenza virus B/Harbin/7/94 (Yamagata) (influenza B virus)
# Assay: cell-based or functional assay
row,Binder,neutralization titer [nM]
1,B3,4.5
2,B4,7.2

# Target: HA of H3N2 A/Wisconsin/67/2005 (influenza A virus)
# Assay: cell-based or functional assay
row,Binder,VNA titer [nM]
1,B1,> 1000
2,B14,> 1000
3,B2,> 1000
4,B16,304

# Target: hemagglutinin (HA) of influenza A/New Caledonia/20/99 (H1N1) (influenza A virus A/New Caledonia/20/99 (H1N1))
# Assay: cell-based or functional assay
row,Binder,VNA IC50 [nM]
1,B11,6
2,B12,3
3,B7,8
4,B8,3
5,B13,5
6,B9,4
7,B10,8
